Source: patent publication US20090155853A1

Target: human coxsackie virus B adenovirus receptor (CAR) expressed on CHO cells (CHO-hCAR) (human) (UniProt P78310)
Assay: cell-based or functional assay

Sequence of UniProt P78310 (P78310 20-365): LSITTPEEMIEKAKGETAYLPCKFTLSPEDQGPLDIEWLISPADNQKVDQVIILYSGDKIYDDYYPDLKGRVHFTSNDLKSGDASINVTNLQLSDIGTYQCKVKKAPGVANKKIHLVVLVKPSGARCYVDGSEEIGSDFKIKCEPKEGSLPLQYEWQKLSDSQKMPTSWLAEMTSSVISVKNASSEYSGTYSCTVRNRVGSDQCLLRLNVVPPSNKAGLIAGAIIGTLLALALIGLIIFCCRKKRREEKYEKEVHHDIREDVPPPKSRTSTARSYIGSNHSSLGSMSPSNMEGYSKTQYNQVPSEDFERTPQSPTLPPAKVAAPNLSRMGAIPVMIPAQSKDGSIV

In the case of “HMG-PB/Fiber complex (HMG-PB plus Fiber protein) (from UniProt P12538 1-571; P11818 1-581)”, the luciferase reporter plasmid delivery (luciferase gene expression) in CHO-hCAR against parental CHO cells is reported as 6 times.
